Data reported in the supplement of paper PMC9170038.

Test system: MS2 coat protein
Experiment: apparent KD of MS2 coat protein; designed switch direction (-1 OFF switch, 1 ON switch): -1; higher = weaker reporter binding
Outline: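 Transcription of designed RNA switches on Illumina chips was done by stalled E. coli RNA polymerase. SNAP-549-labelled MS2 coat protein was then titrated in doubling steps from 0.7 or 1.5 nM to 3 µM, with steps of 0.8–1.5 h at the lowest and 10–20 min at the highest concentration. The per-design median over clusters of curve-fitted normalised fluorescence is reported as apparent KD.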

[1] = input ligand: microRNA oligo, concentration not stated
[2] = Eterna round: R95, input ligand: microRNA oligo, concentration not stated
[3] = Eterna round: R95, input ligand: FMN 200 uM
[4] = Eterna round: R95, input ligand: none

| Sequence | apparent KD of MS2 coat protein (input ligand: FMN 200 uM) [µM] | apparent KD of MS2 coat protein (input ligand: none) [µM] | apparent KD of MS2 coat protein [2] [µM] | further results |
| --- | --- | --- | --- | --- |
| UUGUUAUGUGUAGGAUAUGCAUAUUAUUAUUAUGCAGAAGGACAUGAGGAUCACCCAUGUGUAUUAUUAUUAUAUAUUAUAUAU [Title] (Eterna round: R96, puzzle: Exclusion NG 1) |  |  |  | apparent KD of MS2 coat protein [1]: 0.0172 µM |
| UGUAAGCUAGGAUAUGCUUUGGGAAAGCAUUCCUUCGAUAAACUUGAGGAUCACCCAAGUAGAAGGAGCUUACU [salish99_ex2_r4_006] (Eterna round: R97, puzzle: Exclusion 2) | 0.0175 | 0.0115 |  |  |
| GCCUGUGAAGGAUAUACAUGAGGAUCACCCAUGUGGCGGGCAUACCCGCCGAGACCGUGUAGAAGGUCAUAGUA [Telamais] (puzzle: Exclusion 3) |  |  | 0.0499 |  |
| UUGAUACAUACCUCCAUAAACAUGAGGAUCACCCAUGUAAGUGAGGAUAUAGAUUGAUUAGUAUACUAGAAGGCACUUAGAUAU [JR_ExcNG3_Sub044] (Eterna round: R96, puzzle: Exclusion NG 3) | 0.0116 | 0.0133 |  | apparent KD of MS2 coat protein [1]: 0.00891 µM |
| GAGAAAUUAUAGGAUAUCGAAAGGAUAAUUUAACGAGAAGGAUGAACAUGAGGAUCACCCAUGUGGUAUCAUGG [JL-ex6-3.11] (puzzle: Exclusion 6) |  |  | 0.302 | apparent KD of MS2 coat protein [3]: 0.346 µM; apparent KD of MS2 coat protein [4]: 0.157 µM |
| CUGUGCACGCUGCGGUCCUACAUGAGGAUCACCCAUGUGGUCUGGUGGCGUGGGUCGCCGGACUUGGCUCGUCUUGA [salish99_S_TOV1_R5_023] (Eterna round: R97, puzzle: Sensor, turn-off variant 1) | 0.0191 | 0.0192 |  |  |
| AGUACUAACACGAGAGUGUUAGUACAAUAAGCUUGUGUUACAUGAGGAUCACCCAUGUCCUCAUAAGCUCGUCUUAU [Mat - Sensor v3 - Turn-off var 2 - D53] (puzzle: Sensor v3, turn-off variant 2) |  |  | 0.246 | apparent KD of MS2 coat protein [3]: 0.133 µM; apparent KD of MS2 coat protein [4]: 0.115 µM |
| CCUUUGUCAGGAUAUCGAAAAGGGAGGCCAAAAGCCUCCGGUGAGAAGGGACAUGAGGAUCACCCAUGUGAAAA [Usleaor] (puzzle: Exclusion 4) |  |  | 0.0379 |  |
| CUUUUGUGAGGAUAUCAGUAGUAAUACAAUAGUAUUACUACUGAGAAGGCACAUGAGGAUCACCCAUGUUCCUC [Ex4 344 Omei mod 0] (puzzle: Exclusion 4) |  |  | 0.0405 |  |
| CGUCUGUAAGGAUAUGGUAGCAUUUACAUGAGGAUCACCCAUGUUACAUGGGACUAGUGAUUAGAAGGUACGAACG [EX5 #55] (Eterna round: R97, puzzle: Exclusion 5) | 0.276 | 0.322 |  |  |
| GAGUGACAUGAGGAUCACCCAUGUGAGGAUAUCGGACGGACCAAAUUAACAAUAAUUGCGAGAAGGCGCAUCGG [Exclusion 1 V15] (puzzle: Exclusion 1) |  |  | 0.0516 | apparent KD of MS2 coat protein [3]: 0.076 µM; apparent KD of MS2 coat protein [4]: 0.0544 µM |
| AAGAGAGCAGGAUAUACAUGAGGAUCACCCAUGUGGGAAAUAAGUGGCGUACCACAAAGUAGAAGGGCUUUCCA [jl-ex3-4.80 Eli automod] (Eterna round: R97, puzzle: Exclusion 3) | 0.31 | 0.0862 |  |  |
| AAGUACCGUCACGAUAGUGAUGGUACAACAAGCAUGUAAACAUGAGGAUCACCCAUGUCCUCAAUUGCUCGUCUUAU [Sensor 3 - 68] (puzzle: Sensor v3, turn-off variant 2) |  |  | 0.57 | apparent KD of MS2 coat protein [3]: 0.692 µM; apparent KD of MS2 coat protein [4]: 0.842 µM |
| AACUUGUAAGGAUAUACAUGAGGAUCACCCAUGUGUCCCACGAACCGACAGGUCGUCUGUAGAAGGUGCAACAU [Eternabot (L1) Solution 88] (Eterna round: R97, puzzle: Exclusion 3) | 0.029 | 0.0274 |  |  |
| AAUGUCUGAGGAUAUCGUUUUUUGUACAUGAGGAUCACCCAUGUCCAAUUUUGUAUAUUACGAGAAGGCAGUGGAA [JR_E5_Sub089] (Eterna round: R96, puzzle: Exclusion 5) | 0.0239 | 0.015 |  | apparent KD of MS2 coat protein [1]: 0.0107 µM |
| CCUCUACAUGAGGAUCACCCAUGUGAGGAUAUCAGUGCAAAGGGCACGUAUUAAAACGUGAGAAGGCACAUGGG [EX1 A.17] (Eterna round: R97, puzzle: Exclusion 1) | 0.0889 | 0.135 |  |  |
| CUAUUGGCAGGAUAUGCUUUUUUAGACAUGAGGAUCACCCAUGUGAUGAAUAUUGGGUUUGCAGAAGGGCCUGAAU [JR_E5_Sub039] (puzzle: Exclusion 5) |  |  | 0.0642 |  |
| GGGUGCAGGCUGGGAUCCUACAUGAGGAUCACCCAUGUGGUCCGGUGACGUGAGUCACCGGACUUAGCUCGUCUUGU [salish99_S_TOV1_R5_008] (Eterna round: R97, puzzle: Sensor, turn-off variant 1) | 0.569 | 0.865 |  |  |

| Sequence | apparent KD of MS2 coat protein (input ligand: FMN 200 uM) [µM] | apparent KD of MS2 coat protein (input ligand: none) [µM] | apparent KD of MS2 coat protein [2] [µM] | further results |
| --- | --- | --- | --- | --- |
| AAUCAACAUGAGGAUCACCCAUGUGAGGAUAUACGCAUGCAUGCAUGCAUGCAUGCAAGUAGAAGGCACAAUAC [Design #17] (Eterna round: R97, puzzle: Exclusion 1) | 0.042 | 0.0279 |  |  |
| UAAUAUAAGCAAAGAUCCUACAUGAGGAUCACCCAUGUGCUCGUCUUAUAAAGUACUAUCACGAAAGUGAUAGUACA [Mat - Sensor v3 - turn-off var 1 - Eli Mod - D81] (puzzle: Sensor v3, turn-off variant 1) |  |  | 0.0198 | apparent KD of MS2 coat protein [3]: 0.116 µM; apparent KD of MS2 coat protein [4]: 0.17 µM |
| AAAAAACAAGGAUAUACGAAGGAUGGUUAUCUUAAUUUUUGACAUGAGGAUCACCCAUGUAGAAGGUGUUAAAA [JR_Exclusion2_Sub010] (puzzle: Exclusion 2) |  |  | 0.0348 |  |
| AAACAGGGAGGAUAUACAUAGAUCCUCUAACCUAAUUGGUCACAUGAGGAUCACCCAUGUAGAAGGCCCUUAGG [Enquanes] (puzzle: Exclusion 2) |  |  | 0.0136 |  |
| GCCGGAUUUGUGAGGAUAUGCCUAUGGAUACAUAGGCAGAAGGCACAUGAGGAUCACCCAUGUUCCUCACCGGC [JL-BMX4-4.24 Eli mod] (Eterna round: R97, puzzle: Brourd's mod of Exclusion 4) | 0.232 | 0.0298 |  |  |
| GAUCAACAUGAGGAUCACCCAUGUGAGGAUAUGAUACUAUGUACUUCGGUACAUAGUAUCAGAAGGCAUGUGGA [Ex1-3: 76] (puzzle: Exclusion 1) |  |  | 0.162 |  |
| UUUUUACAUGAGGAUCACCCAUGUCAGGAUAUCAUUAUAUUUUAUUAUUUUAUUUAUAUGAGAAGGGACUAUUA [My solution] (puzzle: Exclusion 1) |  |  | 0.0939 |  |
| UUUAGUUCAGGAUAUGUAGAUUUUAACAUGAGGAUCACCCAUGUCGAUCCUGAAUUAACUACAGAAGGGAACAUUU [Mod of Brourd 4 - Jieux - Exclusion 5] (Eterna round: R97, puzzle: Exclusion 5) | 0.064 | 0.0188 |  |  |
| UUAUUACAAGCAAGAUCUCACAUGAGGAUCACCCAUGUGCUCGUCUUAAAAGGUACUGUGACGAAAGUCACGGUACC [Eli 100 v3] (Eterna round: R97, puzzle: Sensor, turn-off variant 1) | 0.0164 | 0.0149 |  |  |
| UAUUAACAAGCUAGAUCCUACAUGAGGAUCACCCAUGUGCUCGUCUUAUAAGGUACUGUGACGAAAGUCACGGUACC [Sensor 3, v1 - 76] (puzzle: Sensor v3, turn-off variant 1) |  |  | 0.0424 | apparent KD of MS2 coat protein [3]: 0.265 µM; apparent KD of MS2 coat protein [4]: 0.243 µM |
| AUAAAGAAUGUUAGGAUAUUGGUGAAUAGGCUGACUAAGAAGGAACAUGAGGAUCACCCAUGUAAAAUGGAAAA [Readima] (puzzle: Brourd's mod of Exclusion 4) |  |  | 0.023 | apparent KD of MS2 coat protein [3]: 0.0667 µM; apparent KD of MS2 coat protein [4]: 0.0291 µM |
| GCCUCACUUGAGGAUCACCCAAGUCAGGAUAUCUACAAGCCGGCCAUGCCAGCUUGCAAGAGAAGGGACUCUAA [Diazale] (Eterna round: R97, puzzle: Exclusion 1) | 0.205 | 0.0316 |  |  |
| UUUGUUGUUGUGAGGAUAUCGUUGUUAUUUUGAAACGAGAAGGCACAUGAGGAUCACCCAUGUUUGUUGAUGGU [JR_BMOE4_Sub060] (puzzle: Brourd's mod of Exclusion 4) |  |  | 0.0415 |  |
| UCAGUUUUGCGAGGAUAUCGACCAUUCCUCUUUACAUGAGGAUCACCCAUGUGCUUAUCCUACAACGAGAAGGCGCUCAUACUC [JR_ExcNG2_Sub065] (Eterna round: R96, puzzle: Exclusion NG 2) | 0.543 | 0.574 |  | apparent KD of MS2 coat protein [1]: 0.58 µM |
| ACUCGACAUGAGGAUCACCCAUGUGAGGAUAUGGCCUGUAUGGCGUGAGCUGGCUCAGUCAGAAGGCGCGUGGG [salish99_ex1_r4_047] (Eterna round: R97, puzzle: Exclusion 1) | 0.151 | 0.123 |  |  |
| AUAUAGCGAGGAUAUACAUGAGGAUCACCCAUGUAAUAAAUAUAUAUAUUUAUAUUAUGUAGAAGGCGCUAUAU [-18.5, -17.2 kcal, 39% A] (Eterna round: R97, puzzle: Exclusion 3) | 0.0303 | 0.0145 |  |  |
| UGAUCACAUGAGGAUCACCCAUGUCAGGAUAUCGUCACUGGAGCCUCGGCUCCAGUGACGAGAAGGGACAUAAU [E1/3-A2] (Eterna round: R97, puzzle: Exclusion 1) | 0.137 | 0.253 |  |  |
| UUAGUAUUGCAAGGAUAUGUUUAUGAUAUUUUUCCUCUUACAUGAGGAUCACCCAUGUUUAACUUACAGAAGGUGCUAUGAUUU [JR_ExcNG2_Sub031] (Eterna round: R96, puzzle: Exclusion NG 2) |  |  |  | apparent KD of MS2 coat protein [1]: 0.342 µM |
